Source: publication PMC5161677
Substitutions are numbered along the chain they refer to.

How the values were obtained:
DnaA = molecular target: T1, DnaA (Caulobacter crescentus, UniProt B8GWW5 1-490); experiment: EMSA
T1 sequence: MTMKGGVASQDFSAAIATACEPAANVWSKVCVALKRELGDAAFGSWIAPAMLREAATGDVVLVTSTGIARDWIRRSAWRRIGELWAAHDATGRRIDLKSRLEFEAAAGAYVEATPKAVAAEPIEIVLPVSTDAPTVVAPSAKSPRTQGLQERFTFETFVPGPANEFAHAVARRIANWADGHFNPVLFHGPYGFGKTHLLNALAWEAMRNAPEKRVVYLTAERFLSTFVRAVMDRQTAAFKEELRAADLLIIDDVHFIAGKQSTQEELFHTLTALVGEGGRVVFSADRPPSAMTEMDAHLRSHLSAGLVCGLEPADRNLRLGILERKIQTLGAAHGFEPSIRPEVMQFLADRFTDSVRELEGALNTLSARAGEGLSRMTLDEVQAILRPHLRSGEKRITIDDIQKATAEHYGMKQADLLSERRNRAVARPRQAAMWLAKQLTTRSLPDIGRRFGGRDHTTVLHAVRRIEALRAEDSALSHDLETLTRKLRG

DnaA R357A = molecular target: T2, DnaA R357A (Caulobacter crescentus, UniProt B8GWW5 1-490, R357A); experiment: EMSA
T2 sequence: T1 sequence with R357A

B1: G1 DnaA box dsDNA (dsDNA)
DNA 1: AACGGATGATCCACAGGAGAG
DNA 2: CTCTCCTGTGGATCATCCGTT
B1: binds (DnaA); binds (DnaA R357A).
